The results in this text go back to publication PMC10397247.

Common to all, as to assay: two-hybrid library CCmax;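 note: natural log of median RNA to DNA barcode read ratio; higher means stronger binding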
The target of one test is T1, 4H3120-AA.
T1 chain: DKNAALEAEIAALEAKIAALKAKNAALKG
As to conditions: mean of both orientations.

The next test addresses T2, 4H3016-AA.
T2 chain: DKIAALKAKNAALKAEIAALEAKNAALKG
As to conditions: mean of both orientations.

For the next test, the target named is T3, 4H3590-AA.
T3 chain: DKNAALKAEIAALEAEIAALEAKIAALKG
The following applies: mean of both orientations.

The target in a further test is T4, 4H850-AA.
T4 chain: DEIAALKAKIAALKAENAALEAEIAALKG
As to conditions: mean of both orientations.

A further test has as its target T5, 4H3410-AA.
T5 chain: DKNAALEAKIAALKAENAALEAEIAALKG
The following applies: mean of both orientations.

For the next test, the target named is T6, 4H891-AA.
T6 chain: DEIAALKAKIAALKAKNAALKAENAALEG
The following applies: mean of both orientations.

In a further test the target is T7, 4H2698-AA.
T7 chain: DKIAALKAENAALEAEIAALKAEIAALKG

In another test the target is T8, 4H3865-AA.
T8 chain: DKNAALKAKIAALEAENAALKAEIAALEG
As to conditions: mean of both orientations.

Another test addresses T9, 4H930-AA.
T9 chain: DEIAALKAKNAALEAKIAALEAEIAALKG
The following applies: mean of both orientations.

A further test addresses T10, 4H94-AA.
T10 chain: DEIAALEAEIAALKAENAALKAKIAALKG
As to conditions: mean of both orientations.

A further test deals with T11, 4H570-AA.
T11 chain: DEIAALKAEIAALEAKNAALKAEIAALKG
The following applies: mean of both orientations.

A further test concerns the target T12, 4H3381-AA.
T12 chain: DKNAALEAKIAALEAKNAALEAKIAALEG
As to conditions: mean of both orientations.

The next test addresses T13, 4H2725-AA.
T13 chain: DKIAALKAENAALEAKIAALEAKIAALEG
The following applies: mean of both orientations.

In a further test the target is T14, 4H629-AA.
T14 chain: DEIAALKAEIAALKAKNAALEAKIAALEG
The following applies: mean of both orientations.

In another test the target is T15, 4H3395-AA.
T15 chain: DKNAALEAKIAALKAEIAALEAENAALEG
As to conditions: mean of both orientations.

In another test the target is T16, 4H3130-AA.
T16 chain: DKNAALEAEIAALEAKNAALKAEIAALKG
The following applies: mean of both orientations.

A further test has as its target T17, 4H536-AA.
T17 chain: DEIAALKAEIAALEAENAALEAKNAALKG
As to conditions: mean of both orientations.

The target in the next test is T18, 4H3753-AA.
T18 chain: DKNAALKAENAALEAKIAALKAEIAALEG
As to conditions: mean of both orientations.

The next test addresses T19, 4H3009-AA.
T19 chain: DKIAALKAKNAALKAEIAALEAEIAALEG
The following applies: mean of both orientations.

The target in a further test is T20, 4H745-AA.
T20 chain: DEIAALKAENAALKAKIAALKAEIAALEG
The following applies: mean of both orientations.

The next test deals with T21, 4H310-AA.
T21 chain: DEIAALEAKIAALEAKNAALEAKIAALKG
As to conditions: mean of both orientations.

Another test deals with T22, 4H458-AA.
T22 chain: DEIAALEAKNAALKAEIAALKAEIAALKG
As to conditions: mean of both orientations.

A further test deals with T23, 4H3697-AA.
T23 chain: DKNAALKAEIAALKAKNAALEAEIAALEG
As to conditions: mean of both orientations.

A further test concerns the target T24, 4H485-AA.
T24 chain: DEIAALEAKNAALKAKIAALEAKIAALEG
The following applies: mean of both orientations.

Another test addresses T25, 4H909-AA.
T25 chain: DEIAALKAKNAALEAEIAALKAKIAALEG
The following applies: mean of both orientations.

In the next test the target is T26, 4H2865-AA.
T26 chain: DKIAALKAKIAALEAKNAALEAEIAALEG
As to conditions: mean of both orientations.

The target of a further test is T27, 4H710-AA.
T27 chain: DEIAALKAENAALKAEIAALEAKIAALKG
The following applies: mean of both orientations.

A further test deals with T28, 4H3165-AA.
T28 chain: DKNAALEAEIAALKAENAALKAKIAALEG
The following applies: mean of both orientations.

Another test addresses T29, 4H797-AA.
T29 chain: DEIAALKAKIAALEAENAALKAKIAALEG
The following applies: mean of both orientations.

Another test has as its target T30, 4H3939-AA.
T30 chain: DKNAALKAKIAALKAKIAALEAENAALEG
The following applies: mean of both orientations.

The target of the next test is T31, 4H3628-AA.
T31 chain: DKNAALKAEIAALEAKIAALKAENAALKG
The following applies: mean of both orientations.

In another test the target is T32, 4H656-AA.
T32 chain: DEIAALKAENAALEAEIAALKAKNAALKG
The following applies: mean of both orientations.

A further test deals with T33, 4H3417-AA.
T33 chain: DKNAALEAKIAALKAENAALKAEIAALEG

The next test has as its target T34, 4H3709-AA.
T34 chain: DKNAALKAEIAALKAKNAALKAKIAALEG
The following applies: mean of both orientations.

For the next test, the target named is T35, 4H391-AA.
T35 chain: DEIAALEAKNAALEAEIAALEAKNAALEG
The following applies: mean of both orientations.

The next test concerns the target T36, 4H3591-AA.
T36 chain: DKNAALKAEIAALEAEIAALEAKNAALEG
The following applies: mean of both orientations.

A further test deals with T37, 4H971-AA.
T37 chain: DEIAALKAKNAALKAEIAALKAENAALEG
The following applies: mean of both orientations.

A further test has as its target T38, 4H3446-AA.
T38 chain: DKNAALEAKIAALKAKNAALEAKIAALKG
The following applies: mean of both orientations.

The next test deals with T39, 4H478-AA.
T39 chain: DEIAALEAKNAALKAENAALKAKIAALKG
As to conditions: mean of both orientations.

In the next test the target is T40, 4H497-AA.
T40 chain: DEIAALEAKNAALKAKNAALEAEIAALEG
The following applies: mean of both orientations.

For the next test, the target named is T41, 4H3920-AA.
T41 chain: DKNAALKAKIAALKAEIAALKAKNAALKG
As to conditions: mean of both orientations.

The next test addresses T42, 4H675-AA.
T42 chain: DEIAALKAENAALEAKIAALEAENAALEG
As to conditions: mean of both orientations.

The target in another test is T43, 4H3666-AA.
T43 chain: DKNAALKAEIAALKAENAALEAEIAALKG
The following applies: mean of both orientations.

The target of a further test is T44, 4H428-AA.
T44 chain: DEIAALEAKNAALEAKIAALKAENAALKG
The following applies: mean of both orientations.

B1: 4H2698-AA (peptide)
chain: DKIAALKAENAALEAEIAALKAEIAALKG
For B1, the interaction score with 4H3120-AA was -1.3; with 4H3016-AA it was 0.539; with 4H3590-AA, -0.95; with 4H850-AA it was -0.992; in the test with 4H3410-AA, -1.56; with 4H891-AA, -1.59. Also, the interaction score with 4H2698-AA was 2.27; with 4H3865-AA, -1.07; with 4H930-AA, -0.113; in the test with 4H94-AA, -0.915; with 4H570-AA, 0.35; in the test with 4H3381-AA, -0.904. In addition, the interaction score is -1.02 in the test with 4H2725-AA; -1.54 with 4H629-AA; -1.65 in the test with 4H3395-AA; 1.19 with 4H3130-AA; -1.49 with 4H536-AA; -1 in the test with 4H3753-AA. The interaction score was 2.02 with 4H3009-AA; 2.2 in the test with 4H745-AA; -0.185 in the test with 4H310-AA; 2.26 in the test with 4H458-AA; -1.12 with 4H3697-AA; 1.49 in the test with 4H485-AA. For the same molecule, the interaction score in the test with 4H909-AA is -0.0319; with 4H2865-AA, 0.889; with 4H710-AA, 1.79; in the test with 4H3165-AA, -1.39; in the test with 4H797-AA, -1.25.

B2: 4H3417-AA (peptide)
chain: DKNAALEAKIAALKAENAALKAEIAALEG
For B2, the interaction score was -1.87 in the test with 4H3939-AA; -1.29 with 4H3628-AA; 0.318 with 4H656-AA; 0.336 with 4H3417-AA; -0.223 with 4H3709-AA; -1.68 in the test with 4H391-AA. The interaction score was -1.37 with 4H3591-AA; -1.03 in the test with 4H971-AA; -0.679 in the test with 4H3446-AA; 0.524 in the test with 4H478-AA; -1.9 with 4H497-AA; -1.61 in the test with 4H3920-AA. For the same molecule, the interaction score was -0.587 in the test with 4H675-AA, 1.09 in the test with 4H3666-AA and -0.935 with 4H428-AA.
